# Results taken from article PMC12173652.
# Target: epidermal growth factor receptor (EGFR) (human (endogenous in HeLa)) (UniProt P00533)
substance,measurement,value
"pIII::EGF fusion displayed on the helper phage M13SW7-EGF (epidermal growth factor, GGGS linker, M13 minor coat protein pIII) (from UniProt P69168 19-424)","fold difference in luciferase expression (EGF^+/EGF^−), A549, mini phagemid, +TurboFect, 96 h",9.96 fold
same,"fold difference in luciferase expression (EGF^+/EGF^−), HeLa, full phagemid, +TurboFect, 96 h",261 fold
same,"fold difference in luciferase expression (EGF^+/EGF^−), HeLa, mini phagemid, +TurboFect, 96 h",705 fold
same,"fold difference in luciferase expression (EGF^+/EGF^−), HeLa, mini phagemid, −TurboFect, 96 h",25.6 fold
same,"fold difference in luciferase expression (EGF^+/EGF^−), MRC-5, full phagemid, −TurboFect, 96 h",4.14 fold
same,"fold difference in luciferase expression (EGF^+/EGF^−), MRC-5, mini phagemid, +TurboFect, 96 h",5.73 fold
